Results reported in patent US20250376535A1 (BEIJING STARMAB BIOMED TECHNOLOGY, published 2025).

T1: recombinant human IL-22 (human, UniProt Q9GZX6 34-179)
T1 construct: also called rh-IL22
T1 sequence: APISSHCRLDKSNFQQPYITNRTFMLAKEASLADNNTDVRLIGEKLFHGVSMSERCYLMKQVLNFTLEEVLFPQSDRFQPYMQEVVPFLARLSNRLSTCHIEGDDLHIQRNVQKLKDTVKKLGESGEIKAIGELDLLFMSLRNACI


Legend:
EGFR Fc [1] = biological target: T2, EGFR Fc (human, UniProt P00533 25-645); assay: ELISA, EGFR Fc coated
T2 construct: also called EGFR-hFc; recombinant human EGFR-Fc
Procedure: (§1) After four rounds of washing with PBST, the plate was incubated with detecting antibody anti-his-HRP (1:4000 dilution) 100 μl per well for one hour with shaking at 60 rpm. The plate was developed with 100 μL of TMB per well in the dark and then stopped by 50 μL of stop solution per well. […] Data was analyzed using GraphPad Prisma 9.1.

EGFR Fc [2] = biological target: T2, EGFR Fc; assay: ELISA, EGFR Fc coated, VHH at 2 nM
Procedure: as §1

EGFR Fc [3] = biological target: T2, EGFR Fc; assay: ELISA, EGFR Fc coated, VHH at 10 nM
Procedure: as §1

EGFR Fc [4] = biological target: T2, EGFR Fc; assay: ELISA, EGFR Fc coated, VHH at 50 nM
Procedure: as §1

EGFR Fc [5] = biological target: T2, EGFR Fc; assay: ELISA, EGFR Fc coated, VHH at 0.4 nM
Procedure: as §1

EGFR Fc [6] = biological target: T2, EGFR Fc; assay: ELISA, EGFR Fc coated, VHH at 500 nM
Procedure: as §1

EGFR Fc [7] = biological target: T2, EGFR Fc; assay: ELISA, EGFR Fc coated, VHH at 0.08 nM
Procedure: as §1

EGFR Fc [8] = biological target: T2, EGFR Fc; assay: ELISA, EGFR Fc coated, VHH at 0.016 nM
Procedure: as §1

EGFR Fc [9] = biological target: T2, EGFR Fc; assay: ELISA, EGFR Fc coated, VHH at 0.0032 nM
Procedure: as §1

recombinant human IL-22 = biological target: T1, recombinant human IL-22; assay: BLI (Octet), His-tagged VHH on HIS1K tips, IL-22 in solution
Procedure: Bio-Layer Interferometry (BLI), a label-free technology was used for measuring the binding kinetics of positive llama single domain antibodies. Affinity measurements were performed with Octet QKe equipped with Anti-Penta-His capture (HIS1K) biosensor tips (ForteBio®). The assay was performed at 30 C in 1×PBS buffer (Gibco®, PBS pH7.2). Samples were agitated at 1000 rpm. Prior to analysis, sensors were humidified for 15 minutes. Purified single domain antibodies was tested for its binding capacity with HIS1K sensor tips. Tips were loaded using 20 μg/ml of single domain antibodies. Loading proceeded for 300 s resulting in capture levels of between 1.8 and 2 nm. […] Association was initiated and monitored for 200 s, after which tips were transferred to 1×PBS buffer without Factor protein (Gibco, PBS pH 7.2), in order to monitor dissociation. Sensor data was collected throughout the experiments, processed, and analyzed using the Octet data analysis software 7 (Forte Bio).

[10] = biological target: T3, recombinant human CD40-Fc (human, UniProt P25942 21-193); assay: ELISA, CD40-Fc coated, VHH at 8 nM
T3 construct: also called rh-CD40-Fc; CD40-hFc
T3 sequence (P25942 21-193): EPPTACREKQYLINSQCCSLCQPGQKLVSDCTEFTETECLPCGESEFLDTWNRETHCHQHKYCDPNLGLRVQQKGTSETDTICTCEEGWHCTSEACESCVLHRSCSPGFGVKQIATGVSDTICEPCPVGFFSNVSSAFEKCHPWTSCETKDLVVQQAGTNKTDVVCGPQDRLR
Procedure: (§2) After four times washing with PBST, the plate was incubated with detecting antibody anti-his-HRP (1:4000 dilution) 100 μl per well for one hour with shaking at 60 rpm. The plate was developed with 100 μL of TMB per well in the dark and then stopped by 50 μL of stop solution per well.

[11] = biological target: T3, recombinant human CD40-Fc; assay: ELISA, CD40-Fc coated, VHH at 40 nM
Procedure: as §2

[12] = biological target: T3, recombinant human CD40-Fc; assay: ELISA, CD40-Fc coated, VHH at 1.6 nM
Procedure: as §2

[13] = biological target: T3, recombinant human CD40-Fc; assay: ELISA, CD40-Fc coated, VHH at 200 nM
Procedure: as §2

[14] = biological target: T3, recombinant human CD40-Fc; assay: ELISA, CD40-Fc coated, VHH at 0.32 nM
Procedure: as §2

[15] = biological target: T3, recombinant human CD40-Fc; assay: ELISA, CD40-Fc coated, VHH at 1000 nM
Procedure: as §2

[16] = biological target: T3, recombinant human CD40-Fc; assay: ELISA, CD40-Fc coated, VHH at 0.013 nM
Procedure: as §2

[17] = biological target: T3, recombinant human CD40-Fc; assay: ELISA, CD40-Fc coated, VHH at 0.064 nM
Procedure: as §2

[18] = biological target: T3, recombinant human CD40-Fc; assay: ELISA, CD40-Fc coated, VHH at 0.0026 nM
Procedure: as §2

[19] = biological target: T4, Human CD40 antigen (recombinant, BLI) (human, UniProt P25942 21-193); assay: BLI, VHH-His on anti-His tips, human CD40 in solution;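 further: kinetics measured at 30 °C in PBS pH 7.2, association tracked for 200 s, then dissociation followed in PBS lacking CD40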
T4 construct: also called rh-CD40
T4 sequence (P25942 21-193 limits assumed): as the sequence (P25942 21-193) above
Procedure: Bio-Layer Interferometry (BLI) kinetic binding analysis. […] Affinity measurements were performed with Gator equipped with Anti-Penta-His capture (HIS1K) biosensor tips. The assay was performed at 30° C. in 1×PBS buffer (Gibco®, PBS pH7.2). Samples were agitated at 1000 rpm. Prior to analysis, sensors were humidified for 15 min. […] Sensor data was collected throughout the experiments, processed, and analyzed using the Gator data analysis software.
Briefly, purified anti-CD40 VHH was tested for its binding capacity with HIS1K sensor tips. Tips were loaded using 20 μg/ml of anti-CD40 VHH. Loading proceeded for 300 sec resulting in capture levels of between 1.8 and 2 nm. […] Association was initiated and monitored for 200 sec, after which tips were transferred to 1×PBS buffer without CD40 protein in order to monitor dissociation.

human serum albumin = biological target: T5, human serum albumin (human, UniProt P02768 25-609); assay: BLI (Gator), His-tagged VHH on anti-His sensor, HSA 100 nM in solution
T5 construct: also called HSA
Procedure: Kinetic binding analysis of MSA VHHs were performed with Gator Prime system equipped with analyze software. […] The experiments were done at 30° C. Prior to analysis, sensors were socked in Q buffer for 600 sec with shaking at 1000 rpm, and then 2 μM of HIS tagged MSA VHHs were loaded to Anti-His sensors with shaking at 400 rpm for 120 sec. Loaded sensors were transferred into Q buffer for 60 sec. Association of HSA or MSA at 100 nM was initiated and monitored for 120-180 sec with shaking at 1000 rpm, and finally dissociation in Q buffer for 120-180 sec with 1000 rpm shaking. Software V2.0 (Gator Bio) was used for data analysis. The on-rate (Kₒₙ) and off-rate (Kd) were determined by fitting of the association and dissociation phases of each sample. The mathematical model used assumes a 1:1 stoichiometry, fitting only one analyte in solution binding to one binding site on the surface. The equilibrium dissociation constant (KD), a measure for affinity, was then calculated as the ratio of Kd and Kₒₙ.

OD450 [10]	OD450 [11]	OD450 [12]	OD450 [13]	OD450 [14]	OD450 [15]	OD450 [16]	OD450 [17]	OD450 [18]	Kd [19] [nM]	koff [19] [s⁻¹]	kon [19] [M⁻¹ s⁻¹]	Binder	also measured
0.063	0.066	0.056	0.126	0.063	0.569	0.055	0.053	0.06	0.469	0.000625	1.33e+06	pgDD40-HZ-47 (VHH, not shown: small tags and cut ends) VHH: QVQLVESGGGLVQPGGSMRLSCSASGFSISVYWMSWVRRAPGKGLEWVSNLGADGVTAQYSDSVKGRFTIARDTAKNTLYLQMNSLKPEDTAVYYCNAMTGMNPAEEEAYWGQGTQVTVSS	–
0.059	0.067	0.062	0.123	0.066	0.419	0.075	0.07	0.061	4.06	0.00372	917000	pgDD40-HZ-28 (VHH, not shown: small tags and cut ends) VHH: EVQLVESGGGLVQAGGSLRLSCVASERTFTPVRMGWFRQAPGKEREIVAAITWSDGSTYYADAVKGRFTISRDNALNAVYLQIDSLKPEDTAVYVCAASTSPYSTHLQFRYWGQGTQVTVSS	–
1.66	1.72	0.866	1.69	0.248	1.68	0.056	0.074	0.055	< 0.001	1e-06	779000	pgDD40-SZ-1 (VHH, not shown: small tags and cut ends) VHH: QVQLVESGGALAQPGGSLRLSCEASTNVRSVNAMAWYRQGPGKPRELVANITSDDATYYADSVKGRFTLSREGARNTVYLQMNSLKPEDTAVYQCNVHYTSWGGIRRDYWGRGTQVTVSS	–
0.061	0.076	0.062	0.166	0.06	0.479	0.063	0.062	0.064	3.12	0.0011	351000	pgDD40-HZ-15 (VHH, not shown: small tags and cut ends) VHH: EVQLVESGGGLVQAGGSLRLSCAASGFTFDDYAIGWFRQAPGKEREGVSCLSKNVGNTYYADSVKGRFTISSDNAKNTVYLQMNSLKPEDTAVYYCAKGSGYGCYDFPRYAVWGQGTQVTVSS	–

The next lines start with the binder.

Binder	OD450 [10]	OD450 [11]	OD450 [12]	OD450 [13]	OD450 [14]	OD450 [15]	OD450 [16]	OD450 [17]	OD450 [18]	Kd [19] [nM]	koff [19] [s⁻¹]	kon [19] [M⁻¹ s⁻¹]	also measured
pgEG-SX56 (VHH, not shown: small tags and cut ends) VHH: QVQLVESGGGFVQAGGSLRLSCAASGRFLSIADMDWYRRVPGKQRELVASITRAGDTALEDSVKGRFTISRDNAKNTVHLQMNSVKPEDTAVYYCRADVTRSGTPYFEVWGQGTLVTVSS	–	–	–	–	–	–	–	–	–	–	–	–	EC50 (EGFR Fc [1]): 0.044 nM; OD450 (EGFR Fc [2]): 1.46; OD450 (EGFR Fc [3]): 1.54; OD450 (EGFR Fc [4]): 1.47; OD450 (EGFR Fc [5]): 1.32; OD450 (EGFR Fc [6]): 1.5; OD450 (EGFR Fc [7]): 1.15; OD450 (EGFR Fc [8]): 0.569; OD450 (EGFR Fc [9]): 0.409
pgEG-SX55 (VHH, not shown: small tags and cut ends) VHH: QVQLVESGGGLVQPGGSLRLSCAGTGLIFTTYVMGWYRQAPGKQRELVAIVTNGGGTHYADFVKGRFTISRDNAKNTVSLQMNLLKPEDTAVYYCNARHLVRPGTNDYWGQGTLVTVSS	–	–	–	–	–	–	–	–	–	–	–	–	EC50 (EGFR Fc [1]): 0.237 nM; OD450 (EGFR Fc [2]): 2.22; OD450 (EGFR Fc [3]): 2.42; OD450 (EGFR Fc [4]): 2.2; OD450 (EGFR Fc [5]): 1.61; OD450 (EGFR Fc [6]): 2.24; OD450 (EGFR Fc [7]): 0.5; OD450 (EGFR Fc [8]): 0.193; OD450 (EGFR Fc [9]): 0.125
IL22-354 (VHH, Llama single domain antibody with C-terminal His-tag; not shown: C-terminal His-tag) VHH: EVQLVESGGGLVQPGGSLRLSCAASGFTLDYYAIAWFRQAPGKEREGVSCISTSDGSTYYADSVKGRFTISRDNAKNTVYLQMNSLKPEDTAVYYCAADPSPFFVAPLVDYEYDYWGQGTQVTVSS	–	–	–	–	–	–	–	–	–	–	–	–	Kd (recombinant human IL-22): 0.366 nM; koff (recombinant human IL-22): 0.000184 s⁻¹; kon (recombinant human IL-22): 503000 M⁻¹ s⁻¹
IL22-223 (VHH, Llama single domain antibody with C-terminal His-tag; not shown: C-terminal His-tag) VHH: QVQLVESGGGLAQPGGSLRLSCAVSGFTLNYYVIAWFRQAPGKEREGVSCISSSDGSTYYTDSVKGRFTISRDNAKNTVYLQMDSLKPEDTAVYYCAADLRAYYTVPLWASEYDYWGQGTQVTVSS	–	–	–	–	–	–	–	–	–	–	–	–	Kd (recombinant human IL-22): 1.29 nM; koff (recombinant human IL-22): 0.00036 s⁻¹; kon (recombinant human IL-22): 278000 M⁻¹ s⁻¹
pgEG-SX39 (VHH, not shown: small tags and cut ends) VHH: QVQVAESGGGLVQAGESLRLSCTASGSISTINAVRWYRQTPGKQREFVAYISTDGGTDYADPVKGRFTISRDNAKNTWFLQMNSLKPEDTGVYMCNVVVTPYAYWGQGTQVTVSS	–	–	–	–	–	–	–	–	–	–	–	–	EC50 (EGFR Fc [1]): 2760 nM; OD450 (EGFR Fc [2]): 0.073; OD450 (EGFR Fc [3]): 0.093; OD450 (EGFR Fc [4]): 0.147; OD450 (EGFR Fc [5]): 0.067; OD450 (EGFR Fc [6]): 0.503; OD450 (EGFR Fc [7]): 0.068; OD450 (EGFR Fc [8]): 0.072; OD450 (EGFR Fc [9]): 0.075
pgDD40-SZ-7 (VHH, not shown: small tags and cut ends) VHH: QVQLVESGGALAQPGGSLRLSCEASATVRSVNAMAWYRQGPGKPRELVANITSGDTTYYADSVKGRFTLSREGARNTVYLQMNSLKPEDTAVYQCNIHYTSTGGIRRDYWGRGTQVTVSS	1.6	1.67	1.01	1.62	0.332	1.67	0.092	0.088	0.056	< 0.001	1e-06	721000	–
MSA2 (VHH, Llama single domain antibody with C-terminal His-tag, made in HEK293; not shown: C-terminal His-tag) VHH: EVQLVESGGGLAQAGGFLRLSCADSGHSFSLYAMAWFRQTPEKEREFVAAISSSGGDTYYADSVKGRFTISRENAKNTVYLQMDSLKPGDTAVYFCAGNYYTSQLMRGMYEHWGQGTQVTVSS	–	–	–	–	–	–	–	–	–	–	–	–	koff (human serum albumin): 0.0225 s⁻¹
IL22-A3 (VHH, Llama single domain antibody with C-terminal His-tag; not shown: C-terminal His-tag) VHH: QVQLVESGGGLVQPGGSLRLSCEASGRTFSSVSMGWFRQAPGKERVIVAAADWSGTTYYTGSLKGRFTISRDNAKNMVYLQMNSLKPEDTAVYYCAASDPRRSAYKYWGQGTQVTVSS	–	–	–	–	–	–	–	–	–	–	–	–	Kd (recombinant human IL-22): 0.817 nM; koff (recombinant human IL-22): 0.000405 s⁻¹; kon (recombinant human IL-22): 496000 M⁻¹ s⁻¹
pgEG-SX52 (VHH, not shown: small tags and cut ends) VHH: QVQLVESGGGLVKAGKSLRLSCAASVSSFDTYTMGWYRQAPGKQREQVAIITPGAGTHYADSVKGRFTISRDNAKNTVYLQMSSLKLEDTAVYYCKARHRITGYDYWGQGTQVTVSS	–	–	–	–	–	–	–	–	–	–	–	–	EC50 (EGFR Fc [1]): 0.105 nM; OD450 (EGFR Fc [2]): 2.34; OD450 (EGFR Fc [3]): 2.44; OD450 (EGFR Fc [4]): 2.33; OD450 (EGFR Fc [5]): 2; OD450 (EGFR Fc [6]): 2.23; OD450 (EGFR Fc [7]): 1.07; OD450 (EGFR Fc [8]): 0.32; OD450 (EGFR Fc [9]): 0.196
Humanized IL22-223 (VHH, not shown: C-terminal His-tag) VHH: EVQLVESGGGLVQPGGSLRLSCAASGFTLNYYVMSWFRQAPGKEREGVSAISSSDGSTYYADSVKGRFTISRDNSKNTLYLQMNSLRAEDTAVYYCAADLRAYYTVPLWASEYDYWGQGTVSS	–	–	–	–	–	–	–	–	–	–	–	–	Kd (recombinant human IL-22): 1.07 nM; koff (recombinant human IL-22): 0.000547 s⁻¹; kon (recombinant human IL-22): 509000 M⁻¹ s⁻¹
MSA6 (VHH, Llama single domain antibody with C-terminal His-tag, made in HEK293; not shown: C-terminal His-tag) VHH: QVQLVESGGGLVQPGGSLRLSCAASGLPSRVMGWFRQAAGKEREFVASISVSGIDTRYGDSVKGRFTISRDNTKSSLYLQMNSLKPEDTAVYYCAATDGQGNYRHWGQGTQVTVSS	–	–	–	–	–	–	–	–	–	–	–	–	Kd (human serum albumin): 20.9 nM; koff (human serum albumin): 0.00125 s⁻¹; kon (human serum albumin): 59800 M⁻¹ s⁻¹
